expression_or_secretion data for three substances are collected here from PMC9672452.

The nature of this data set: cell-surface N1, PE anti-Notch1 flow cytometry, CHO. The following applies: control: wild type. (In general: In flow cytometry, cells or beads pass a laser one at a time.)

In the case of NOTCH1 (N1): T349P, for the setting “glycan lost”, the expression_or_secretion entry is given as “decreases”. On the same count and under the same terms, in the case of NOTCH1 (N1): T311P it was “decreases”. As for NOTCH1 (N1): N386T, the expression_or_secretion entry (glycan gained) was “no change”.
